Key:
[1] = target: CD9(ECD)-ALP conjugate (human; bovine); experiment: HI-1000 capture immunoassay; secondary calibrator C1, 1.02 U/L; run 2
[2] = target: CD9(FL)-ALP conjugate (human; bovine); experiment: HI-1000 capture immunoassay; calibrator C3, 7.4 ng/mL; run 3
[3] = target: CD9(FL)-ALP conjugate (human; bovine); experiment: HI-1000 capture immunoassay; calibrator C4, 21.93 mU/L; run 1
[4] = target: CD9(ECD)-ALP conjugate (human; bovine); experiment: HI-1000 capture immunoassay; secondary calibrator C4, 129.62 U/L; run 3
[5] = target: CD9(FL)-ALP conjugate (human; bovine); experiment: HI-1000 capture immunoassay; calibrator C1, 1.0 ng/mL; run 1
[6] = target: CD9(ECD)-ALP conjugate (human; bovine); experiment: HI-1000 capture immunoassay; secondary calibrator C2, 3.84 U/L; run 2
[7] = target: CD9(ECD)-ALP conjugate (human; bovine); experiment: HI-1000 capture immunoassay; secondary calibrator C3, 14.32 U/L; run 1
[8] = target: CD9(FL)-ALP conjugate (human; bovine); experiment: HI-1000 capture immunoassay; calibrator C3, 10.96 mU/L; mean of 3
[9] = target: CD9(ECD)-ALP conjugate (human; bovine); experiment: HI-1000 capture immunoassay; primary calibrator C1, 1.52 ng/mL; run 3
[10] = target: CD9(FL)-ALP conjugate (human; bovine); experiment: HI-1000 capture immunoassay; calibrator C4, 15 ng/mL; run 3
[11] = target: CD9(ECD)-ALP conjugate (human; bovine); experiment: HI-1000 capture immunoassay; secondary calibrator C5; mean of 3 aliquots
[12] = target: CD9(FL)-ALP conjugate (human; bovine); experiment: HI-1000 capture immunoassay; calibrator C5, 43.86 mU/L; run 3
[13] = target: CD9(ECD)-ALP conjugate (human; bovine); experiment: HI-1000 capture immunoassay; primary calibrator C5, 159.87 ng/mL; run 3
[14] = target: CD9(FL)-ALP conjugate (human; bovine); experiment: HI-1000 capture immunoassay; calibrator C4, 15 ng/mL; mean of 3
[15] = target: CD9(FL)-ALP conjugate (human; bovine); experiment: HI-1000 capture immunoassay; calibrator C2, 5.48 mU/L; mean of 3
[16] = target: CD9(FL)-ALP conjugate (human; bovine); experiment: HI-1000 capture immunoassay; calibrator C4, 21.93 mU/L; run 2
[17] = target: CD9(ECD)-ALP conjugate (human; bovine); experiment: HI-1000 capture immunoassay; thawed aliquot 1 of secondary calibrator C5
[18] = target: CD9(ECD)-ALP conjugate (human; bovine); experiment: HI-1000 capture immunoassay; primary calibrator C4, 50.05 ng/mL; run 2
[19] = target: CD9(ECD)-ALP conjugate (human; bovine); experiment: HI-1000 capture immunoassay; secondary calibrator C3, 14.32 U/L; mean of 3
[20] = target: CD9(FL)-ALP conjugate (human; bovine); experiment: HI-1000 capture immunoassay; calibrator C5, 30 ng/mL; run 1
[21] = target: CD9(ECD)-ALP conjugate (human; bovine); experiment: HI-1000 capture immunoassay; primary calibrator C2, 4.89 ng/mL; mean of 3
[22] = target: CD9(FL)-ALP conjugate (human; bovine); experiment: HI-1000 capture immunoassay; calibrator C5, 43.86 mU/L; run 1
[23] = target: CD9(ECD)-ALP conjugate (human; bovine); experiment: HI-1000 capture immunoassay; thawed aliquot 3 of secondary calibrator C1
[24] = target: CD9(ECD)-ALP conjugate (human; bovine); experiment: HI-1000 capture immunoassay; secondary calibrator C1, 1.02 U/L; mean of 3
[25] = target: CD9(FL)-ALP conjugate (human; bovine); experiment: HI-1000 capture immunoassay; calibrator C4, 21.93 mU/L; mean of 3
[26] = target: CD9(ECD)-ALP conjugate (human; bovine); experiment: HI-1000 capture immunoassay; secondary calibrator C5, 387.01 U/L; run 1
[27] = target: CD9(ECD)-ALP conjugate (human; bovine); experiment: HI-1000 capture immunoassay; primary calibrator C1, 1.52 ng/mL; run 1
[28] = target: CD9(FL)-ALP conjugate (human; bovine); experiment: HI-1000 capture immunoassay; calibrator C5, 30 ng/mL; mean of 3
[29] = target: CD9(ECD)-ALP conjugate (human; bovine); experiment: HI-1000 capture immunoassay; thawed aliquot 2 of secondary calibrator C5
[30] = target: CD9(ECD)-ALP conjugate (human; bovine); experiment: HI-1000 capture immunoassay; secondary calibrator C1; mean of 3 aliquots
[31] = target: CD9(ECD)-ALP conjugate (human; bovine); experiment: HI-1000 capture immunoassay; primary calibrator C3, 15.65 ng/mL; run 2
[32] = target: CD9(ECD)-ALP conjugate (human; bovine); experiment: HI-1000 capture immunoassay; primary calibrator C3, 15.65 ng/mL; run 1
[33] = target: CD9(ECD)-ALP conjugate (human; bovine); experiment: HI-1000 capture immunoassay; secondary calibrator C2; mean of 3 aliquots
[34] = target: CD9(ECD)-ALP conjugate (human; bovine); experiment: HI-1000 capture immunoassay; primary calibrator C4, 50.05 ng/mL; run 3
[35] = target: CD9(ECD)-ALP conjugate (human; bovine); experiment: HI-1000 capture immunoassay; primary calibrator C3, 15.65 ng/mL; run 3
[36] = target: CD9(FL)-ALP conjugate (human; bovine); experiment: HI-1000 capture immunoassay; calibrator C1, 1.83 mU/L; run 3
[37] = target: CD9(ECD)-ALP conjugate (human; bovine); experiment: HI-1000 capture immunoassay; primary calibrator C2, 4.89 ng/mL; run 2
[38] = target: CD9(ECD)-ALP conjugate (human; bovine); experiment: HI-1000 capture immunoassay; thawed aliquot 1 of secondary calibrator C3
[39] = target: CD9(FL)-ALP conjugate (human; bovine); experiment: HI-1000 capture immunoassay; calibrator C1, 1.0 ng/mL; run 2
[40] = target: CD9(FL)-ALP conjugate (human; bovine); experiment: HI-1000 capture immunoassay; calibrator C2, 3.7 ng/mL; run 1

Chain of CD9(ECD)-ALP conjugate (human; bovine) (chain, as listed by the source, chain 1 of 2): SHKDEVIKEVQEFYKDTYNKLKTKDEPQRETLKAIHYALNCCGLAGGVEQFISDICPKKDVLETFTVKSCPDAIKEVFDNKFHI
Chain of CD9(ECD)-ALP conjugate (human; bovine) (P19111 20-506, chain 2 of 2): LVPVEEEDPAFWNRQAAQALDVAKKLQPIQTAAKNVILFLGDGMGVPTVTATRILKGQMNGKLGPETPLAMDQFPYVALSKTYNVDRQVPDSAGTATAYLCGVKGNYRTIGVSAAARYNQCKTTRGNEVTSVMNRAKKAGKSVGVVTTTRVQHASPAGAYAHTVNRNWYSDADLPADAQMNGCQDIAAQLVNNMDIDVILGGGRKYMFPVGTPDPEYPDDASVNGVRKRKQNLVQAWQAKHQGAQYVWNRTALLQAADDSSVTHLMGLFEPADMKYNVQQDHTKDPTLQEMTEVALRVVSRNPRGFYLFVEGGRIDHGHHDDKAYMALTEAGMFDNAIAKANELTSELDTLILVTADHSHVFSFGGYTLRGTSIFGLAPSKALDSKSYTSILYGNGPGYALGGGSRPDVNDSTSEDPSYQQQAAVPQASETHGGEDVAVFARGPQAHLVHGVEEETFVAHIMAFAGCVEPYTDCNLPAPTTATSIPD
Chain of CD9(FL)-ALP conjugate (human; bovine) (chain, as listed by the source, chain 1 of 2): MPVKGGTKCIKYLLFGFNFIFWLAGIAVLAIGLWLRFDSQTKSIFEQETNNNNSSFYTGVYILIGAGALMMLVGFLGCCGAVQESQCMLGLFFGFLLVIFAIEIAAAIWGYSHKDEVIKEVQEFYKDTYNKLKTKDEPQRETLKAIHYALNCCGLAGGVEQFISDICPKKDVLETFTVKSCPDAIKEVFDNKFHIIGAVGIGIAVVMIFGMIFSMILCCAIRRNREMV
Chain of CD9(FL)-ALP conjugate (human; bovine) (P19111 20-506, chain 2 of 2): as the sequence (P19111 20-506, chain 2 of 2) above

Count value [1]: 937 count
Count value [2]: 7010 count
Count value [3]: 13400 count
Count value [4]: 69500 count
Count value [5]: 1420 count
Count value [6]: 2300 count
Count value [7]: 7980 count
Count value (av) [8]: 6750 count
Count value [9]: 1120 count
Count value [10]: 13900 count
Count value (av) [11]: 36300 count
Count value [12]: 27800 count
Count value [13]: 71600 count
Count value (av) [14]: 13500 count
Count value (av) [15]: 3640 count
Count value [16]: 13200 count
Count value [17]: 36500 count
Count value [18]: 21800 count
Count value (av) [19]: 8090 count
Count value [20]: 24600 count
Count value (av) [21]: 2560 count
Count value [22]: 25800 count
Count value [23]: 805 count
Count value (av) [24]: 941 count
Count value (av) [25]: 13300 count
Count value [26]: 220000 count
Count value [27]: 1080 count
Count value (av) [28]: 25900 count
Count value [29]: 36800 count
Count value (av) [30]: 811 count
Count value [31]: 7230 count
Count value [32]: 7340 count
Count value (av) [33]: 1560 count
Count value [34]: 22600 count
Count value [35]: 6980 count
Count value [36]: 1460 count
Count value [37]: 2520 count
Count value [38]: 3830 count
Count value [39]: 1550 count
Count value [40]: 5360 count
Substance: anti-CD9 antibody (Clone: H19a)
